Measurements: patent US20210340231A1 (FAPON BIOTECH, published 2021)
Where a chain is given by its changes, count along the chain named.

B1: Mutation 1-40 (antibody, V domains shown)
VH: EVQLQQSGAELVKPGASVKLSCTASGFNLKDYYMHWMKQRTEQGLDWIGRIDPEDGETKYAPEFQGKATITADTSSNTAYLQLSTLTSEDTAVYYCARYYSSYIPFVYWGQGTLVTASA
VL: DVVMTQTPLSLSVSLGDQASISCRSSQSLLYSNRHTYLHWYLQKPGQSPKLLIFQISNRFSGVPDRFSGSGSGTDFTLKINRVEAEDLGVYFCSQSTHLPFTFGSGTKLEIKR
notes: built as for Mutation 1
B2: Mutation 1-23 (antibody, V domains shown)
VH: B1 VH with L29I
VL: B1 VL with L29I, L99I, F101Y
notes: built as for Mutation 1
B3: Mutation 1-31 (antibody, V domains shown)
VH: B1 VH with L29I, G56A, I104V
VL: B1 VL with L29I, I56V, L99I, F101Y
notes: built as for Mutation 1
B4: Mutation 1-24 (antibody, V domains shown)
VH: B1 VH with Y33F, G56A, K59R, I104V
VL: B1 VL with I56V, L99I
notes: built as for Mutation 1
B5: Mutation 1-18 (antibody, V domains shown)
VH: B1 VH with L29I, Y33F, G56A
VL: B1 VL with L29I
notes: built as for Mutation 1
B6: Mutation 1-53 (antibody, V domains shown)
VH: B1 VH with L29I, G56A, I104L
VL: B1 VL with L29I, L30I, I56L, L99I, F101Y
notes: built as for Mutation 1
B7: Mutation 1-49 (antibody, V domains shown)
VH: B1 VH with L29I, G56A, K59R, I104L
VL: B1 VL with L29I, I56L, L99I, F101Y
notes: built as for Mutation 1
B8: Mutation 1-41 (antibody, V domains shown)
VH: B1 VH with L29I, K59R
VL: B1 VL with L29I, L99I, F101Y
notes: built as for Mutation 1
B9: Mutation 1-45 (antibody, V domains shown)
VH: B1 VH with L29I, I104V
VL: B1 VL with L30I, I56V, L99I
notes: built as for Mutation 1
B10: Mutation 1-42 (antibody, V domains shown)
VH: B1 VH with Y33F, I104L
VL: B1 VL with I56L, F101Y
notes: built as for Mutation 1
B11: Mutation 1-48 (antibody, V domains shown)
VH: B1 VH with L29I, Y33F, K59R
VL: B1 VL with L29I, L30I, F101Y
notes: built as for Mutation 1
B12: Mutation 1-46 (antibody, V domains shown)
VH: B1 VH with Y33F, G56A, K59R
VL: B1 VL with L30I, L99I
notes: built as for Mutation 1
B13: Mutation 1-43 (antibody, V domains shown)
VH: B1 VH with G56A, K59R, I104V
VL: B1 VL with L29I, L30I, I56V, L99I, F101Y
notes: built as for Mutation 1
B14: Mutation 1-51 (antibody, V domains shown)
VH: B1 VH with K59R, I104L
VL: B1 VL with L30I, I56L, F101Y
notes: built as for Mutation 1
B15: Mutation 1-47 (antibody, V domains shown)
VH: B1 VH with G56A, I104V
VL: B1 VL with I56V
notes: built as for Mutation 1

These binders were tested against T1, CTNI quality control recombinant protein (PK2-CTNI-1, 170120, produced by the applicant) (human, UniProt P19429 2-210, limits assumed) (assay: AMC sensor kinetics, antibody captured, cTnI analyte).
T1 construct: also called cardiac troponin I
Method: Using the AMC sensor, the purified antibody was diluted with PBST to 10 μg/ml, and the CTNI quality control recombinant protein (PK2-CTNI-1, 170120, produced by the applicant) was serially diluted with PBST to 400 nmol/ml, 200 nmol/ml, 100 nmol/ml, 50 nmol/ml, 25 nmol/ml, 12.5 nmol/ml, 6.25 nmol/ml, and 0 nmol/ml.

T1 sequence (P19429 2-210 limits assumed): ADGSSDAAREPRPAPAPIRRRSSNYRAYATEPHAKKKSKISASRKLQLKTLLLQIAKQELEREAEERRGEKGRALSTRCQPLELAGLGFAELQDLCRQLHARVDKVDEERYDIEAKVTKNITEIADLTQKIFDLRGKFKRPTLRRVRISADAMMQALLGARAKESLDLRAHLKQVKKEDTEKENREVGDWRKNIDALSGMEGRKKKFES

Row | Binder | Kd | koff | kon
1 | B1 | 0.818 nM | 0.000164 s⁻¹ | 200000 M⁻¹ s⁻¹
2 | B2 | 0.968 nM | 0.000673 s⁻¹ | 695000 M⁻¹ s⁻¹
3 | B3 | 0.795 nM | 0.000301 s⁻¹ | 378000 M⁻¹ s⁻¹
4 | B4 | 0.408 nM | 0.000259 s⁻¹ | 635000 M⁻¹ s⁻¹
5 | B5 | 0.68 nM | 0.000282 s⁻¹ | 415000 M⁻¹ s⁻¹
6 | B6 | 0.721 nM | 0.000243 s⁻¹ | 337000 M⁻¹ s⁻¹
7 | B7 | 0.538 nM | 0.000298 s⁻¹ | 553000 M⁻¹ s⁻¹
8 | B8 | 0.723 nM | 0.000393 s⁻¹ | 544000 M⁻¹ s⁻¹
9 | B9 | 0.168 nM | 3.24e-05 s⁻¹ | 193000 M⁻¹ s⁻¹
10 | B10 | 0.347 nM | 0.00018 s⁻¹ | 520000 M⁻¹ s⁻¹
11 | B11 | 0.956 nM | 0.00065 s⁻¹ | 680000 M⁻¹ s⁻¹
12 | B12 | 0.723 nM | 0.00027 s⁻¹ | 373000 M⁻¹ s⁻¹
13 | B13 | 0.651 nM | 7.75e-05 s⁻¹ | 119000 M⁻¹ s⁻¹
14 | B14 | 0.765 nM | 7.54e-05 s⁻¹ | 98600 M⁻¹ s⁻¹
15 | B15 | 0.81 nM | 0.000507 s⁻¹ | 626000 M⁻¹ s⁻¹
